From patent US20250121104A1 (FUSION PHARMACEUTICALS, published 2025)

Experiments:
[1] = target: T1, EGFR and cMET co-expressed on the surface of tumour cell lines (HCC827, HT29, H441, H1975) (UniProt P00533 25-1210; P08581 25-1390); assay: saturation radioligand binding on H441 cells, 4 C, specific binding (4 µM cold antibody for non-specific), single-site fit
T1 construct: whole, on cells; Target of the bispecific molecules on cells that carry both receptors; the cell line of each value stands under assay; also called EGFR and c-MET expressing cell line; EGFR and/or cMET expressing cell lines
Description: (§1) The purpose of this assay was to ensure that the radioimmunoconjugates maintained the binding characteristics of the native antibody in EGFR and/or cMET expressing cell lines including HT29, H441, HT29, HCC827, and H1975. One day prior to the experiment, cells (1.5-2×10⁵) were seeded in 48-well microplates in 500 μL supplemented medium. At the start of the assay, cells were washed with PBS once and then treated with increasing concentrations of Compound E (0.05 nM to 100 nM) in the absence and presence of 4 μM cold antibody [total binding (TB) and non-specific binding (NSB) respectively]. Plates were incubated at 4° C. for about 3 hours with mild shaking. Following incubation, the cells were washed twice with PBS and were then lysed with 1% Triton-X-100. The lysates were transferred to gamma counting tubes and run along with Compound E standards on the Wizard 1470 gamma counter to determine the amount of radioactivity in counts per minute (CPM) for each lysate. The remaining lysate from each well (25 μL) was used for analyzing the protein content using a standard protein quantification assay.

[2] = target: T1, EGFR and cMET co-expressed on the …; assay: saturation radioligand binding on H1975 cells, 4 C, specific binding (4 µM cold antibody for non-specific), single-site fit
Description: as §1

[3] = target: T1, EGFR and cMET co-expressed on the …; assay: saturation radioligand binding on HT29 cells, 4 C, specific binding (4 µM cold antibody for non-specific), single-site fit
Description: as §1

[4] = target: T1, EGFR and cMET co-expressed on the …; assay: saturation radioligand binding on HCC827 cells, 4 C, specific binding (4 µM cold antibody for non-specific), single-site fit
Description: as §1

B1: Compound E, [177Lu]-Compound C-anti-EGFR-cMET conjugate (bispecific antibody, V domains shown)
VH 1: QVQLVQSGAEVKKPGSSVKVSCKASGGTFSDNDFSWVRQAPGQGLEWMGAIVAVFRTETYAQKFQDRVKITADISTRTTYMELSSLRSEDTAVYYCARRLMSAISGPGAPLLMWGQGTLVTVSS
VL 1: QSALTQPRSVSGSPGQSVTISCTGTSSDVGGYNYVSWYQQHPGKAPKLMIYDVSKRPSGVPDRFSGSKSGNTASLTISGLQAEDEADYYCSSYTSSDTLEIFGGGTKLTVL
VH 2: QVQLVQSGAEVKKPGASVKVSCKASGYTFTDYYIHWVRQATGQGLEWMGWMNPNSGNTGYAQKFQGRVTMTRDTSISTAYMELSSLRSEDTAVYYCARGQGYTHSWGQGTMVTVSS
VL 2: DIQMTQSPSTLSASVGDRVTITCRASEGIYHWLAWYQQKPGKAPKLLIYKASSLASGVPSRFSGSGSGTEFTLTISSLQPDDFATYYCQQYSNYPPTFGGGTKLEIK
modifications: 177Lu-DOTA chelate-linker (Compound C) on lysine side chains, sites not stated; 177Lu-DOTA chelate-linker (Compound C) on lysine side chains, sites not stated; chelate-to-antibody ratio 5.3 for the whole antibody
notes: also called [177Lu]-DOTA-anti-EGFR-cMET
- Kd [1]: ~15.5 nM
- Kd [2]: ~6 nM
- Kd [3]: ~5.7 nM
- Kd [4]: ~9.9 nM
